The text below walks through data of patent US5200320A, “Method for identifying useful polypeptide vaccines” (National Jewish Center for Immunology and Respiratory …, priority 1987, dated 1993).

In assay [1] the target is T1, IA^d (Mus musculus, UniProt P01921+P04228).
T1 sequence (P04228 24-256): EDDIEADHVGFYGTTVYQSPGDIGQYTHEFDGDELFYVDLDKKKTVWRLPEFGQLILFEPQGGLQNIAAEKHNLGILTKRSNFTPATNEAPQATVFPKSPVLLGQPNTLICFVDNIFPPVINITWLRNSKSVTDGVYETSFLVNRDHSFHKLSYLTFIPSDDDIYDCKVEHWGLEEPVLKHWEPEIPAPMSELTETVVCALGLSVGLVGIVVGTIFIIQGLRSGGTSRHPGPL
T1 sequence (P01921 28-265): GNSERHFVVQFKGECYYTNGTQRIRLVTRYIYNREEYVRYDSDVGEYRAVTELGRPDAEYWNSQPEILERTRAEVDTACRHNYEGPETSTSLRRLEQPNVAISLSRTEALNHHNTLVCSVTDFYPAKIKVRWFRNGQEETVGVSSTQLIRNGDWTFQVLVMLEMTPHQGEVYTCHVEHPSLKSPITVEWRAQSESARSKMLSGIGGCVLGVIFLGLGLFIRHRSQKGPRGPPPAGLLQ
The note with it: amount of unlabelled Ova 323-339 divided by amount of truncated peptide needed to inhibit binding of 125I Ova 323-339 to IA^d by 50%; averages of 2-4 experiments; cited from earlier work.

The target in assay [2] is T1, IA^d. Nature of the assay: Inhibition of binding of 125I-radiolabelled Ova 323-339 to purified IA^d (gel filtration competition assay). The note with it: Table 7, good binders; concentration of the indicated polypeptide. From the text:
The following examples will illustrate the method of the present invention. First, a critical binding segment of a first polypeptide that binds to a first type of MHC, was ascertained. […] This was accomplished by the method described in Sette, et al, Nature, Vol. […] No. 6129, pp. 395-399, Jul. 30, 1987, the entirety of which is incorporated herein by reference. […] For convenience, Table I of that paper illustrating the foregoing procedure, is attached as Table 2.
The effect which the substitutions indicated by an "X" in Table III, had on the binding strength of the critical binding segment listed at the top of attached Table 4, was quantitatively calculated, and a numerical designation assigned to the substituting amino acid based upon the degree of that effect. The foregoing assigned numerical designations for each "X" position indicated in Table 3, is listed at corresponding positions in Table 4. The quantitative evaluations of the binding strength were made using a competition assay as described in Sette, et al, supra, and the numerals assigned according to the decrease in the binding activity as follows:
The value of "binding" listed in Tables 6 and 7, is in micromolar concentration of the indicated polypeptide. The assay used was the same as that in Sette et al, supra, for quatitative estimation of Ia peptide interaction.
In particular, as pointed out in Sette et al., supra, T-cell recognition is much less permissive than MHC recognition. […] However, as one would expect, when the binding strength of a polypeptide to an MHC types of an individual animal is poor, little or no immunogenic response would result. However, if a polypeptide is a good binder, as ascertained by the above method, then immunogenicity would be expected to be a possibility. […] Binding to a class II MHC type IA^d and IE^d (d strain of mouse) was evaluated using the same assay technique as used to evaluate the binding for the polypeptides in Tables 6 and 7 above.

Ends that are not written are not given here.

Consider “Ova peptide 326-339: N-terminal truncation of Ova 323-339, starting with A (QAVHAAHAEINEAG; UniProt P01012 326-339, looked up, fragment)”, for which, in assay [1], the “Relative I-A^d binding capacity” value was 0.5. As to “Ova peptide 323-333: C-terminal truncation of Ova 323-339, ending in E (KISQAVHAAHA; UniProt P01012 323-333, looked up, fragment)”, in assay [1], the “Relative I-A^d binding capacity” value was 0.6. For the substance “Ova peptide 323-336: C-terminal truncation of Ova 323-339, ending in E (KISQAVHAAHAEIN; UniProt P01012 323-336, looked up, fragment)”, the “Relative I-A^d binding capacity” value in assay [1] is given as 1.1. The term IC50 denotes the concentration at which inhibition is half-maximal. A lower IC50 goes with inhibition by little substance. As for FISEAIIHVLHSR [Myo 106-118], in assay [2], the IC50 amounted to 20 µM.

“Ova peptide 327-339: N-terminal truncation of Ova 323-339, starting with V (AVHAAHAEINEAG; UniProt P01012 327-339, looked up, fragment)”: in assay [1], the “Relative I-A^d binding capacity” value is 0.3. As for SAESLKISQAV [Ova Site II], the IC50 in assay [2] was determined as 5 µM.

“Ova peptide 328-339: N-terminal truncation of Ova 323-339, starting with H (VHAAHAEINEAG; UniProt P01012 328-339, looked up, fragment)”: the “Relative I-A^d binding capacity” value in assay [1] is reported as 0.014. Take “Ova peptide 325-339: N-terminal truncation of Ova 323-339, starting with Q (SQAVHAAHAEINEAG; UniProt P01012 325-339, looked up, fragment)”: the “Relative I-A^d binding capacity” value in assay [1] was 1.1.

With APYTSTLLAPELSETP [HSVD 245-260], the “BINDING (M)” value in assay [2] was 22/2. For the substance “Ova peptide 323-335: C-terminal truncation of Ova 323-339, ending in N (KISQAVHAAHAEI; UniProt P01012 323-335, looked up, fragment)”, the “Relative I-A^d binding capacity” value in assay [1] is reported as 1.0. For the substance “Ova peptide 329-339: N-terminal truncation of Ova 323-339, starting with A (HAAHAEINEAG; UniProt P01012 329-339, looked up, fragment)”, the “Relative I-A^d binding capacity” value in assay [1] is below 0.005. For “Ova peptide 323-331: C-terminal truncation of Ova 323-339, ending in H (KISQAVHAA; UniProt P01012 323-331, looked up, fragment)”, the “Relative I-A^d binding capacity” value in assay [1] is on record as below 0.005. In the case of “Ova peptide 323-332: C-terminal truncation of Ova 323-339, ending in A (KISQAVHAAH; UniProt P01012 323-332, looked up, fragment)”, the “Relative I-A^d binding capacity” value in assay [1] is 0.2. HNTNGVTAACSHE [Ha 130-142]: the IC50 in assay [2] was found to be 9 µM. For the substance AHRVQLGPRSLQVLLIP [JF 39], in assay [2], the IC50 is 25 µM.
